EC50 of cAMP production (HTRF cAMP immunoassay) in CHO-K1 cells transiently expressing rFSHR, 30 min and EC50 of cAMP production (HTRF cAMP immunoassay) in CHO-K1 cells transiently expressing rLH/CGR, 30 min data for four substances are collected here from article PMC8419929.

Test [1] deals with rat follicle-stimulating hormone receptor (rFSHR) (rat) (UniProt P20395).
Test [2] deals with rat lutropin/chorionic gonadotropin receptor (rLH/CGR) (rat) (UniProt P16235).
Chain of UniProt P16235 (P16235 27-700): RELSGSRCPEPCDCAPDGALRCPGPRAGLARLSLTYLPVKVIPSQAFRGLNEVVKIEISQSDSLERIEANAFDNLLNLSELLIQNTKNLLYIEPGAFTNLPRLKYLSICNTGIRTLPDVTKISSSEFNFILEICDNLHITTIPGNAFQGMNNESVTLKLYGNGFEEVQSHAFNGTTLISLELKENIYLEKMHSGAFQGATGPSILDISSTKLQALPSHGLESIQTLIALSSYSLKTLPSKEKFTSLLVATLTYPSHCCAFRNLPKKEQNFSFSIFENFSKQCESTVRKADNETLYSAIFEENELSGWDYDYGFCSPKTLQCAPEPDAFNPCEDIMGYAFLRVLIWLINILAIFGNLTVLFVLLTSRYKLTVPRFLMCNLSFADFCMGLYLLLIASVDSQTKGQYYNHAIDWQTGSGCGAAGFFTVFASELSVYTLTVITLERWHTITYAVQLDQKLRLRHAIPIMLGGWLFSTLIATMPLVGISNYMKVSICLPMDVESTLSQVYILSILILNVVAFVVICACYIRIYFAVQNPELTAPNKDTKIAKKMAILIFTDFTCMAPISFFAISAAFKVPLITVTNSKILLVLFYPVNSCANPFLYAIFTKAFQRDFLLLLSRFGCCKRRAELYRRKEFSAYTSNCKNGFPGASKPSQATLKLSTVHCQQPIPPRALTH

Chain of UniProt P20395 (P20395 18-692): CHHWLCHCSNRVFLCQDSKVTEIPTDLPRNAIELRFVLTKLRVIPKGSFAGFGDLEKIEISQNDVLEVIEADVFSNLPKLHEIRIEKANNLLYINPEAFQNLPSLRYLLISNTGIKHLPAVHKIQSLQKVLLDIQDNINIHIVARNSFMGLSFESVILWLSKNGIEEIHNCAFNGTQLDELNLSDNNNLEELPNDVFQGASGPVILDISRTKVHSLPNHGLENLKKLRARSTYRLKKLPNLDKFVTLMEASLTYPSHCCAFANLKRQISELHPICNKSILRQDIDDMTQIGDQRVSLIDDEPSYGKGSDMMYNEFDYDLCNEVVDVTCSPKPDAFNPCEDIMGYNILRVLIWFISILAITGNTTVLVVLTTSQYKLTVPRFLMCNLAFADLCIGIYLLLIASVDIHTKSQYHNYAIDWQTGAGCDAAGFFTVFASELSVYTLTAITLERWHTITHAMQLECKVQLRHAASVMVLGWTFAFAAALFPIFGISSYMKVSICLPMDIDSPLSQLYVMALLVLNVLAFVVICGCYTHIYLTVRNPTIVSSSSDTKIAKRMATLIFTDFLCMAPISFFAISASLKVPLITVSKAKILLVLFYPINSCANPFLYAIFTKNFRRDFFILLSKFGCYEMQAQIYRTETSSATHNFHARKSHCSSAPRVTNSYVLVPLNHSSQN

Turning to “rec-eCGβ-D/α (single-chain eCG, CTP region of the β-subunit deleted) (ligand)”, the EC50 of cAMP production (HTRF cAMP immunoassay) in CHO-K1 cells transiently expressing rFSHR, 30 min at room temperature, mock-transfected cells subtracted in test [1] turned out to be 63.1 ng/mL. In test [2], this substance displayed an EC50 of cAMP production (HTRF cAMP immunoassay) in CHO-K1 cells transiently expressing rLH/CGR, 30 min at room temperature, mock-transfected cells subtracted of 24.5 ng/mL.
In the case of “rec-eCGβ-D/αΔ56 (single-chain eCG double mutant: CTP of the β-subunit deleted and Asn56 of the α-subunit replaced with Gln) (ligand)”, the EC50 of cAMP production (HTRF cAMP immunoassay) in CHO-K1 cells transiently expressing rFSHR, 30 min at room temperature, mock-transfected cells subtracted in test [1] came out at 94.9 ng/mL. This substance also yielded an EC50 of cAMP production (HTRF cAMP immunoassay) in CHO-K1 cells transiently expressing rLH/CGR, 30 min at room temperature, mock-transfected cells subtracted in test [2] of 334 ng/mL.
Turning to “rec-eCGβ/αΔ56 (single-chain eCG, Asn56 of the α-subunit replaced with Gln) (from UniProt P08751 21-169) (ligand)”, the EC50 of cAMP production (HTRF cAMP immunoassay) in CHO-K1 cells transiently expressing rFSHR, 30 min at room temperature, mock-transfected cells subtracted in test [1] was found to be 112 ng/mL. In addition, the EC50 of cAMP production (HTRF cAMP immunoassay) in CHO-K1 cells transiently expressing rLH/CGR, 30 min at room temperature, mock-transfected cells subtracted in test [2] worked out at 17.6 ng/mL.
Taken in the same sequence, the figures for “recombinant single-chain equine chorionic gonadotropin, rec-eCGβ/α-wt (from UniProt P08751 21-169) (ligand)” were 27.1 ng/mL and 4.6 ng/mL.
